Source: patent US20030100489A1 (COLD SPRING HARBOR LABORATORY, published 2003)

Legend:
GAL4db-CDK5 fusion = molecular target: T1, GAL4db-CDK5 fusion (UniProt P04386 1-147; Q00535 1-292, limits assumed); test: yeast two-hybrid (HIS3 growth and beta-galactosidase) in YPB2
T1 construct: Two-hybrid construct; also called GALAdb fusion construct containing CDK5
Description: (§1) Transformed cells were plated with and without histidine.
(§2) After growing cells in medium selective for both plasmids (minus tryptophan and minus leucine), two colonies were picked randomly and were streaked in plates that either contained or lacked histidine.

GAL4db-PCNA fusion = molecular target: T2, GAL4db-PCNA fusion (UniProt P04386 1-147; P12004 1-261, limits assumed); test: as above
T2 construct: Two-hybrid construct; also called GALAdb fusion construct containing PCNA
Description: as §1, §2

GAL4db-cdc2 fusion = molecular target: T3, GAL4db-cdc2 fusion (UniProt P04386 1-147; P06493 1-297, limits assumed); test: as above
T3 construct: Two-hybrid construct; also called GALAdb fusion construct containing cdc2
Description: as §1, §2

GAL4db-CDK2 fusion = molecular target: T4, GAL4db-CDK2 fusion (UniProt P04386 1-147; P24941 1-298, limits assumed); test: as above
T4 construct: Two-hybrid construct; also called GALAdb fusion construct containing CDK2
Description: as §1, §2

CDK4 Arg24-Cys mutant = molecular target: T5, CDK4 Arg24-Cys mutant (Homo sapiens (Human), UniProt P11802 1-303); test: immunoprecipitation from mixed Sf9 lysates
T5 construct: Found in cells from a melanoma patient; also called mutant CDK4; Arg→Cys mutant of CDK4

cdc2 = molecular target: T6, cdc2 (human, UniProt P06493 1-297); test: anti-CDC2 immunoprecipitation from TGF-β arrested human keratinocytes
T6 construct: Untagged: 35S-labelled in vitro translated, or endogenous in HaCaT human keratinocytes; also called CDK1

CDK2 = CDK2 (human, UniProt P24941 1-298); test: anti-CDK2 immunoprecipitation from TGF-β arrested human keratinocytes

T5 sequence (P11802 whole entry R24C): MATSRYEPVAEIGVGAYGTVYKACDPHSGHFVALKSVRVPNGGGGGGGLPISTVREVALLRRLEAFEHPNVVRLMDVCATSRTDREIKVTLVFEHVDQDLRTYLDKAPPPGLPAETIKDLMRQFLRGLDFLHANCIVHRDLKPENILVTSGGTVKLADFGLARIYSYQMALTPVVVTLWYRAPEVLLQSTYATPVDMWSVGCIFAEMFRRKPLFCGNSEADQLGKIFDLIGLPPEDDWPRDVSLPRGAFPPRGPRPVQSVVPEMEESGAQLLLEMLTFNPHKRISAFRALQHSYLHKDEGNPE
T6 sequence (P06493 whole entry): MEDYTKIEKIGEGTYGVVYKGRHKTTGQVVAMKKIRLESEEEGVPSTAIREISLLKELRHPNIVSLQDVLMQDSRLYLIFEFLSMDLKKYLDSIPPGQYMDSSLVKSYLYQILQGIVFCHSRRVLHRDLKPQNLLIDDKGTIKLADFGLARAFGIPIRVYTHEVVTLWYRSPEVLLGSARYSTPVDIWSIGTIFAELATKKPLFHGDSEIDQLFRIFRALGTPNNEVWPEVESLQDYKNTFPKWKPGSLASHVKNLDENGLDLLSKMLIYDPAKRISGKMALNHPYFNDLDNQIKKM

Row | binding result (GAL4db-CDK5 fusion) | binding result (GAL4db-PCNA fusion) | binding result (GAL4db-cdc2 fusion) | binding result (GAL4db-CDK2 fusion) | binding result (CDK4 Arg24-Cys mutant) | binding result (cdc2) | binding result (CDK2) | Binder
1 | no binding | no binding | no binding | no binding | – | – | – | GAL4ad-p16 fusion (other, not shown: large carriers, Two-hybrid construct in yeast YPB2; also called GALAad-p16) MEPAAGSSMEPSADWLATAAARGRVEEVRALLEAGALPNAPNSYGRRPIQVMMMGSARVAELLLLHGAEPNCADPATLTRPVHDAAREGFLDTLVVLHRAGARLDVRDAWGRLPVDLAEELGHRDVARYLRAAAGGTRGSNHARIDAAEGPSDIPD
2 | – | – | – | – | no binding | – | – | p16 (other, also called human p16) MEPAAGSSMEPSADWLATAAARGRVEEVRALLEAGALPNAPNSYGRRPIQVMMMGSARVAELLLLHGAEPNCADPATLTRPVHDAAREGFLDTLVVLHRAGARLDVRDAWGRLPVDLAEELGHRDVARYLRAAAGGTRGSNHARIDAAEGPSDIPD
3 | – | – | – | – | no binding | no binding | no binding | p15 (other, Untagged p15: endogenous in HaCaT human keratinocytes or overexpressed in Sf9 cells (lysate); also called human p15; protein of approx. 15 kDa) MREENKGMPSGGGSDEGLATPARGLVEKVRHSWEAGADPNGVNRFGRRAIQVMMMGSARVAELLLLHGAEPNCADPATLTRPVHDAAREGFLDTLVVLHRAGARLDVRDAWGRLPVDLAEERGHRDVAGYLRTATGD
